{"source": "paper PMC8001533", "about": "“A Tryptophan ‘Gate’ in the CRISPR-Cas3 Nuclease Controls ssDNA Entry into the Nuclease Site, That When Removed Results in Nuclease Hyperactivity”", "binders": {"B1": {"name": "DNA fork MW12/MW14 (mixed)", "DNA 1": "GTCGGATCCTCTAGACAGCTCCATGATCACTGGCACTGGTAGAATTCGGC", "DNA 2": "CAACGTCATAGACGATTACATTGCTACATGGAGCTGTCTAGAGGATCCGA"}}, "key": {"Cas3W406A": {"biological_target": "T1, Cas3W406A (Escherichia coli K-12 MG1655, UniProt P38036 1-888, W406A)", "T1 sequence": "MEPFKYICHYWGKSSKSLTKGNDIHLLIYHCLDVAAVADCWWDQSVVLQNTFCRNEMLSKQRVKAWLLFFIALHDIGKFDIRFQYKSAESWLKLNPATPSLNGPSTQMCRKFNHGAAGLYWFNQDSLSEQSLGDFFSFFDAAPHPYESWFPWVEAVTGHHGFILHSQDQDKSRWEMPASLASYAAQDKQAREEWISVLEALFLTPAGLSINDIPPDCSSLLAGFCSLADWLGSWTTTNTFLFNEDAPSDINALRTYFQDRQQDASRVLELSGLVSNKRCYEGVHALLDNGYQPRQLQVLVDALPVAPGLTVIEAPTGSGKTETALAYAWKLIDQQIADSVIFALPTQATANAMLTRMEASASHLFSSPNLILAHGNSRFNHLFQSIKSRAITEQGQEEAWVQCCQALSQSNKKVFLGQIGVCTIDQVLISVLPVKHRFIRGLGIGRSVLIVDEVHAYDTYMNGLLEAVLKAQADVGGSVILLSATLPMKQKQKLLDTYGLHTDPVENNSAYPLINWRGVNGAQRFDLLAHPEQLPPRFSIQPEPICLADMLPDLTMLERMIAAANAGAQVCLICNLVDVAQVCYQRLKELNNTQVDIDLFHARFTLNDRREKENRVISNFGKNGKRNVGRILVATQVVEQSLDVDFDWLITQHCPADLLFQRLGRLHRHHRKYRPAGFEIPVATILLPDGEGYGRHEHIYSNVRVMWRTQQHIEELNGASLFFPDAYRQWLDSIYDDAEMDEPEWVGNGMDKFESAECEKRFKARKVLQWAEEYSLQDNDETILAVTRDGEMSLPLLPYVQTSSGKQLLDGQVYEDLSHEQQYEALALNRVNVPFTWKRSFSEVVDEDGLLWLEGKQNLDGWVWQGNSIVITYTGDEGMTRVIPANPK", "test": "EMSA; not more stable or efficient than wild type; EMSA: 20 nM fork DNA, 50 mM Tris-HCl pH 7.5, 100 mM NaCl, 0.1 mg/mL BSA, 20 mM DTT, room temperature, 1 h", "details": "protein: recombinant; tags: (His)6-MBP or His6 (pIIB39 is the His6 pAH4 version); label: 5'-Cy5 on strand 1 (MW12); fork 1:2; as printed strand 1 nt 2-25 pair with strand 2 nt 27-50"}, "Cas3 wild type": {"biological_target": "T2, Cas3 wild type (Escherichia coli K-12 MG1655, UniProt P38036 1-888)", "T2 sequence": "T1 sequence with A406W", "test": "EMSA; EMSA: 20 nM fork DNA, 50 mM Tris-HCl pH 7.5, 100 mM NaCl, 0.1 mg/mL BSA, 20 mM DTT, room temperature, 1 h", "details": "protein: recombinant; tags: (His)6-MBP N-terminal (pCas3); a His6-only construct (pAH4) also exists; label: 5'-Cy5 on strand 1 (MW12); fork 1:2; as printed strand 1 nt 2-25 pair with strand 2 nt 27-50"}}, "note": "Positions count from the first letter of the chain named."}
{"binder": "B1", "values": [{"measurement": "binding result", "setting": "Cas3W406A", "result": "binds"}, {"measurement": "binding result", "setting": "Cas3 wild type", "result": "binds"}]}
